{
  "source": "paper PMC9523724",
  "molecular_target": "commercial orange peel PME (pectin methylesterase, Sigma p5400) (orange (peel))",
  "data": [
    {"substance": "recombinant MePMEI1 protein (pectin methylesterase inhibitor 1 of Manihot esculenta) (natural protein)", "values": [
      {"measurement": "relative activity of MePMEI1 (loss of PME activity with MePMEI1 against the initial PME activity) at pH 4.5, 5.5, 6.5, 7.5 and 8.5; highest at pH 5.5, falling with rising pH", "result": 31, "unit": "%"}
    ]}
  ]
}
